Data: the supplement of paper PMC10724198
± gives the standard deviation of the averaged measurements.

Columns and labels:
Saccharomyces cerevisiae [1] = experiment: protein stability index of tFT-peptide fusion (C-terminal peptide) (PSI (0-1 scale)); higher = more stable (slower turnover)
Method: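 MPS profiling in S. cerevisiae of the tFT-X12 degron library: putative degron peptides plus stable controls, 12 aa, fused to the C-terminus of a sfGFP-mCherry timer. Cells are FACS-sorted into 8 mCherry/sfGFP bins and deep-sequenced. PSI runs from 0 (unstable) to 1 (stable). Backgrounds are wild type, das1Δ and doa10Δ at 30 °C, and wild type, das1Δ, cdc34-1 and cdc53-1 at 37 °C; 2-3 technical replicates each.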

Saccharomyces cerevisiae [2] = experiment: as above; settings: genetic background: wild type; temperature: 30 C
[3] = genetic background: cdc34-1, temperature: 37 C
[4] = genetic background: cdc53-1, temperature: 37 C
[5] = genetic background: das1 deletion, temperature: 30 C
[6] = genetic background: das1 deletion, temperature: 37 C
[7] = genetic background: doa10 deletion, temperature: 30 C
[8] = genetic background: wild type, temperature: 30 C
[9] = genetic background: wild type, temperature: 37 C
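Note: PSI is a weighted mean of sequencing reads over stability bins, variants kept only with over 10 reads, mCherry proximal and sfGFP distal, peptide attached via GGGS linker.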

Sequence	protein stability index (Saccharomyces cerevisiae [1]; [3])	protein stability index (Saccharomyces cerevisiae [1]; [4])	protein stability index (Saccharomyces cerevisiae [1]; [5])	protein stability index (Saccharomyces cerevisiae [1]; [6])	protein stability index (Saccharomyces cerevisiae [1]; [7])	protein stability index (Saccharomyces cerevisiae [1]; [8])	protein stability index (Saccharomyces cerevisiae [1]; [9])	protein stability index (Saccharomyces cerevisiae [2])
RGRLKSSYFILF	0.7 ± 0.032	0.7127 ± 0.0056	0.65 ± 0.013	0.7509 ± 0.0052	0.49 ± 0.0063	0.534 ± 0.047	0.671 ± 0.017	0.497 ± 0.074
RGWNGFWVVVVW	0.216 ± 0.015	0.305 ± 0.03	0.239 ± 0.039	0.4155 ± 0.0011	0.213 ± 0.0046	0.227 ± 0.035	0.368 ± 0.032	0.307 ± 0.0078
RIKVTRRIIIYA	0.335 ± 0.036	0.383 ± 0.07	0.239 ± 0.054	0.446 ± 0.014	0.14 ± 0.0072	0.179 ± 0.022	0.302 ± 0.018	0.299 ± 0.011
RILSLQFILCKR	0.607 ± 0.025	0.649 ± 0.015	0.538 ± 0.024	0.64 ± 0.0078	0.407 ± 0.013	0.414 ± 0.043	0.546 ± 0.019	0.463 ± 0.0058
RLARRGGGWGPG	0.681 ± 0.012	0.7334 ± 0.0049	0.657 ± 0.034	0.706 ± 0.022	0.657 ± 0.034	0.67 ± 0.046	0.7281 ± 0.00042	0.5 ± 0.1
RLELTRIMIVAI	0.06 ± 0.0059	0.08016 ± 0.00021	0.182 ± 0.024	0.214 ± 0.0094	0.109 ± 0.015	0.117 ± 0.028	0.102 ± 0.02	0.207 ± 0.035
RLGIRCLYLRFI	0.406 ± 0.1	0.422 ± 0.052	0.482 ± 0.059	0.5974 ± 0.0019	0.25 ± 0.015	0.216 ± 0.035	0.363 ± 0.016	0.306 ± 0.011
RLLCLARMRGLH	0.6854 ± 0.0031	0.714 ± 0.02	0.631 ± 0.068	0.728 ± 0.037	0.341 ± 0.036	0.337 ± 0.022	0.579 ± 0.024	0.396 ± 0.2
RLMVHQHTIPVR	0.463 ± 0.072	0.54 ± 0.016	0.307 ± 0.037	0.559 ± 0.021	0.276 ± 0.035	0.316 ± 0.0095	0.533 ± 0.0081	0.4449 ± 0.0039
RLVIFITRYLIS	0.337 ± 0.043	0.488 ± 0.066	0.349 ± 0.044	0.562 ± 0.015	0.116 ± 0.03	0.162 ± 0.016	0.275 ± 0.0028	0.2581 ± 0.00054
RLVYSQKRWSLF	0.673 ± 0.07	0.764 ± 0.032	0.653 ± 0.014	0.76378 ± 0.0006	0.167 ± 0.037	0.181 ± 0.032	0.451 ± 0.027	0.24 ± 0.006
RPGRWFCFLYCV	0.382 ± 0.063	0.4311 ± 0.002	0.418 ± 0.022	0.532 ± 0.011	0.163 ± 0.01	0.141 ± 0.017	0.233 ± 0.0093	0.185 ± 0.005
RPIFAYRPLRFL	0.656 ± 0.047	0.757 ± 0.001	0.654 ± 0.014	0.763 ± 0.023	0.212 ± 0.0076	0.231 ± 0.04	0.503 ± 0.015	0.342 ± 0.053
RPNTFRTRAKAL	0.636 ± 0.013	0.712 ± 0.019	0.619 ± 0.026	0.734 ± 0.017	0.145 ± 0.003	0.168 ± 0.039	0.333 ± 0.057	0.274 ± 0.081
RRFKKTEIIKNN	0.625 ± 0.024	0.765 ± 0.048	0.653 ± 0.022	0.7804 ± 0.0062	0.1324 ± 0.00038	0.143 ± 0.053	0.29 ± 0.048	0.247 ± 0.004
RRVPVHIHFSLF	0.627 ± 0.0066	0.707 ± 0.028	0.691 ± 0.014	0.732 ± 0.039	0.156 ± 0.0052	0.194 ± 0.021	0.393 ± 0.033	0.291 ± 0.03
RSKKIFLTKKYS	0.608 ± 0.053	0.734 ± 0.042	0.64 ± 0.035	0.701 ± 0.018	0.162 ± 0.0021	0.202 ± 0.025	0.395 ± 0.044	0.281 ± 0.075
RSPIRYPPVVLS	0.698 ± 0.038	0.753 ± 0.011	0.645 ± 0.021	0.7493 ± 0.0034	0.539 ± 0.021	0.539 ± 0.008	0.6895 ± 0.0015	0.518 ± 0.07
RSPVVVFAVLLF	0.438 ± 0.072	0.481 ± 0.034	0.341 ± 0.036	0.524 ± 0.016	0.35 ± 0.037	0.35 ± 0.029	0.505 ± 0.0057	0.423 ± 0.018
RSRCVRAAVKVG	0.612 ± 0.036	0.659 ± 0.025	0.569 ± 0.043	0.70656 ± 0.00048	0.177 ± 0.0018	0.216 ± 0.023	0.427 ± 0.026	0.324 ± 0.0059
RSRRNRYSRKIA	0.506 ± 0.024	0.659 ± 0.031	0.696 ± 0.043	0.6959 ± 0.0048	0.0765 ± 0.034	0.0787 ± 0.024	0.141 ± 0.03	0.184 ± 0.013
RSWLCFIVFGLF	0.368 ± 0.027	0.413 ± 0.03	0.317 ± 0.03	0.485 ± 0.015	0.238 ± 0.0067	0.234 ± 0.014	0.347 ± 0.011	0.313 ± 0.011
RTSRPVRLFRIH	0.753 ± 0.031	0.83846 ± 4.9e-05	0.656 ± 0.022	0.78 ± 0.009	0.26 ± 0.051	0.279 ± 0.046	0.448 ± 0.0097	0.402 ± 0.06
RVCWLRAFGFLV	0.666 ± 0.033	0.718 ± 0.019	0.587 ± 0.022	0.724 ± 0.024	0.258 ± 0.015	0.29 ± 0.051	0.57118 ± 0.00039	0.305 ± 0.028
RVGALLAVTCPA	0.435 ± 0.035	0.47214 ± 0.00033	0.308 ± 0.025	0.5127 ± 0.0033	0.262 ± 0.0067	0.302 ± 0.036	0.4766 ± 0.0026	0.446 ± 0.0093
RVLILCLFFRWS	0.2532 ± 0.00072	0.404 ± 0.0096	0.274 ± 0.033	0.435 ± 0.0084	0.257 ± 0.0049	0.279 ± 0.029	0.397 ± 0.016	0.347 ± 0.18
RVVILFVFLVYV	0.269 ± 0.013	0.342 ± 0.0015	0.258 ± 0.037	0.376 ± 0.0065	0.2526 ± 0.0011	0.25 ± 0.018	0.365 ± 0.014	0.3235 ± 0.0031
RWCLWGTRVWVS	0.439 ± 0.04	0.522 ± 0.037	0.444 ± 0.021	0.591 ± 0.029	0.103 ± 0.0031	0.111 ± 0.022	0.153 ± 0.03	0.147 ± 0.028
RWELASKCRLCV	0.563 ± 0.0077	0.6716 ± 0.0053	0.563 ± 0.021	0.7123 ± 0.0068	0.148 ± 0.011	0.16 ± 0.029	0.304 ± 0.061	0.296 ± 0.04
RWRDGVAWVVVC	0.254 ± 0.011	0.314 ± 0.024	0.289 ± 0.032	0.452 ± 0.0084	0.0897 ± 0.019	0.098 ± 0.0042	0.0954 ± 0.0098	0.143 ± 0.025
